For one test, the target named is T1, His-PB2 (influenza A/Puerto Rico/8/1934 (PR8, …, UniProt P03428 1-759)).
T1 construct: source: E. coli BL21, purified
Kind of test: pull-down. To be noted: both partners purified.

A further test addresses T2, His-PB1 (influenza A/Puerto Rico/8/1934 (PR8, …, UniProt P03431 1-757)).
T2 construct: source: E. coli BL21, purified
Kind of test: pull-down. Conditions: both partners purified.

B1: GST-DCAF7 (natural protein, human, UniProt P61962 1-342, looked up)
chain: MSLHGKRKEIYKYEAPWTVYAMNWSVRPDKRFRLALGSFVEEYNNKVQLVGLDEESSEFICRNTFDHPYPTTKLMWIPDTKGVYPDLLATSGDYLRVWRVGETETRLECLLNNNKNSDFCAPLTSFDWNEVDPYLLGTSSIDTTCTIWGLETGQVLGRVNLVSGHVKTQLIAHDKEVYDIAFSRAGGGRDMFASVGADGSVRMFDLRHLEHSTIIYEDPQHHPLLRLCWNKQDPNYLATMAMDGMEVVILDVRVPCTPVARLNNHRACVNGIAWAPHSSCHICTAADDHQALIWDIQQMPRAIEDPILAYTAEGEINNVQWASTQPDWIAICYNNCLEILRV
notes: source: E. coli BL21, purified
Take B1: the binding result in the test with His-PB2 and with His-PB1 was “binds” in each case.

These data come from PMC11998537, “Restriction of influenza A virus replication by host DCAF7-CRL4B axis” (Journal of Virology, 2025).
